In patent US20120316071A1 (published 2012) one finds ECL signal data, which are given here for three molecules.

The target in assay [1] is T1, Recombinant Human DLL4 (R&D Systems Cat#1506-D4/CF) (human, UniProt Q9NR61 27-524).
T1 construct: Bought from R&D Systems; also called rHuman DLL4; delta-like protein 4
The experiment in a line: MSD multispot ECL, antigen spotted on plate, Fab 1410 nM; blank spot 709.

Assay [2] addresses T2, rHuman ErbB2/Fc Chimera, CF (R&D Systems Cat#1129-ER) (human, UniProt P04626 23-652).
T2 construct: Bought from R&D Systems; also called human epidermal growth factor 2 receptor (ErbB2); not shown: Fc of the bought chimera
The assay is described as above.

Assay [3] addresses T3, rHuman EGF R/Fc Chimera, CF (R&D Systems Cat#344-ER) (human, UniProt P00533 25-645).
T3 construct: Bought from R&D Systems; also called epidermal growth factor receptor (EGF R); not shown: Fc of the bought chimera
The assay is described as above.

In assay [4] the target is T4, rHuman HGF R/c-MET/Fc Chimera, CF (R&D Systems Cat#358-MT/CF) (human, UniProt P08581 25-932).
T4 construct: Bought from R&D Systems; also called HGF R/Fc; hepatocyte growth factor receptor (HGF R/c-Met); not shown: Fc of the bought chimera
The description is as above.

Assay [5] concerns the target T5, rHuman Notch-1/Fc Chimera, CF (R&D Systems Cat#3647-TK) (human, UniProt P46531 19-526).
T5 construct: Bought from R&D Systems; not shown: Fc of the bought chimera
The description is as above.

In assay [6] the target is T6, rHuman CD44/Fc Chimera, CF (R&D Systems Cat#3660-CD) (human, UniProt P16070 21-220).
T6 construct: Bought from R&D Systems; not shown: Fc of the bought chimera
Described as above.

Assay [7] concerns the target T7, rHuman IGF-1 sR, (IGF-1 sR), CF (R&D Systems Cat#391-GR) (human, UniProt P08069 31-932).
T7 construct: Bought from R&D Systems and called a soluble receptor; also called insulin-like growth factor-1 soluble receptor
Described as above.

The target of assay [8] is T8, rHuman P-Cadherin/Fc Chimera, CF (R&D Systems Cat#861-PC) (human, UniProt P22223 108-654).
T8 construct: Bought from R&D Systems; not shown: Fc of the bought chimera
Described as above.

The target in assay [9] is T9, rHuman Erythropoietin R/Fc Chimera, CF (R&D Systems Cat#963-ER) (human, UniProt P19235 25-250).
T9 construct: Bought from R&D Systems; also called EPO R/Fc; Epo R/Fc chimera; not shown: Fc of the bought chimera
T9 sequence (looked up): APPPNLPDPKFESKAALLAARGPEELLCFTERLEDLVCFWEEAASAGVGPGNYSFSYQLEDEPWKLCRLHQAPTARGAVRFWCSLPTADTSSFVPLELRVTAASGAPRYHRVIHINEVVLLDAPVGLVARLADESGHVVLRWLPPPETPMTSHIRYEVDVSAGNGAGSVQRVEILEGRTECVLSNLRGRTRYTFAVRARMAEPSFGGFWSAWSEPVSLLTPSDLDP
Described as above.

The target in assay [10] is T10, rHuman Erythropoietin R/Fc Chimera, CF (R&D Systems Cat#963-ER) (human, UniProt P19235 25-250).
T10 construct: Bought Fc chimera; also called EPO R/Fc; EPO R; Fc part of the bought chimera not given
T10 sequence (looked up): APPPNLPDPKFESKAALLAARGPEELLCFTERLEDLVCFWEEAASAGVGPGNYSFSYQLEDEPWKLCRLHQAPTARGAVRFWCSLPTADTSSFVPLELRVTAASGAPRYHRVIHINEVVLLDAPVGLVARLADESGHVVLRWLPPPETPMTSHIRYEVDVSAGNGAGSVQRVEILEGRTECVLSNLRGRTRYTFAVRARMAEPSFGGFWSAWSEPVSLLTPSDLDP
The assay can be described thus: Multispot ECL (MSD) titration; antigen spotted on plate; Fab 98.1 nM; blank spot 210.

For assay [11], the target named is T11, Recombinant Human DLL4 (R&D Systems Cat#1506-D4/CF) (human, UniProt Q9NR61 27-524).
T11 construct: Bought recombinant protein; also called delta-like protein 4; rHuman DLL4
The assay is described as above.

Assay [12] deals with T12, rHuman HGF R/c-MET/Fc Chimera, CF (R&D Systems Cat#358-MT/CF) (human, UniProt P08581 25-932).
T12 construct: Bought Fc chimera; also called HGF R/Fc; hepatocyte growth factor receptor; Fc part of the bought chimera not given
The description is as above.

The target in assay [13] is T13, rHuman Notch-1/Fc Chimera, CF (R&D Systems Cat#3647-TK) (human, UniProt P46531 19-526).
T13 construct: Bought Fc chimera; Fc part of the bought chimera not given
Described as above.

Assay [14] concerns the target T14, rHuman IGF-1 sR (IGF-1 sR), CF (R&D Systems Cat#391-GR) (human, UniProt P08069 31-932).
T14 construct: Bought soluble receptor; also called insulin-like growth factor-1 soluble receptor
The assay is described as above.

For assay [15], the target named is T15, rHuman P-Cadherin/Fc Chimera, CF (R&D Systems Cat#861-PC) (human, UniProt P22223 108-654).
T15 construct: Bought Fc chimera; Fc part of the bought chimera not given
The description is as above.

Assay [16] addresses T16, rHuman IGF-1 sR, (IGF-1 sR), CF (R&D Systems Cat#391-GR) (human, UniProt P08069 31-932).
T16 construct: Bought recombinant soluble receptor; also called insulin-like growth factor-1 soluble receptor
The experiment in a line: Multispot ECL (MSD) assay, antigen spotted on plate, Fab at 1.56 µM; blank spot 4357.

In assay [17] the target is T17, rHuman P-Cadherin/Fc Chimera, CF (R&D Systems Cat#861-PC) (human, UniProt P22223 108-654).
T17 construct: Bought recombinant protein; Fc part of the bought chimera not given
Described as above.

B1: Fab VH1-46_IGHD3-10*01_IGHJ4*01 & B3_IGKJ1*01 (Fab, V domains shown)
VH: QVQLVQSGAEVKKPGASVKVSCKASGYTFTSYYMHWVRQAPGQGLEWMGIINPSGGSTSYAQKFQGRVTMTRDTSTSTVYMELSSLRSEDTAVYYCAREYYYGSGSYYNDYFDYWGQGTLVTVSS
VL: not shown
notes: Tested as a Fab made in E. coli; VH was cloned into Plasmid A (CH1 constant region, His6 and Flag tags); The kappa VL was cloned into Plasmid C (kappa CL)
As for B1, the ECL signal is 1260 in assay [1]; 932 in assay [2]; 1070 in [3]; 903 in assay [4]; 1030 in [5]; 885 in assay [6]. For the same molecule, the figures for the ECL signal in [7], in assay [8] and in assay [9] were 426, 1060 and 4310, respectively.

B2: Fab VH1-46_IGHD3-10*01_IGHJ4*01 & O1_IGKJ1*01 (Fab, V domains shown)
VH: QVQLVQSGAEVKKPGASVKVSCKASGYTFTSYYMHWVRQAPGQGLEWMGIINPSGGSTSYAQKFQGRVTMTRDTSTSTVYMELSSLRSEDTAVYYCAREYYYGSGSYYNDYFDYWGQGTLVTVSS
VL: DIVMTQTPLSLPVTPGEPASISCRSSQSLLDSDDGNTYLDWYLQKPGQSPQLLIYTLSYRASGVPDRFSGSGSGTDFTLKISRVEAEDVGVYYCMQRIEFPSWTFGQGTKVEIKR
notes: Germline library Fab expressed in E. coli; VH was cloned into Plasmid A (CH1 constant region, His6 and Flag tags); The kappa VL was cloned into Plasmid C (kappa CL)
B2: the ECL signal in assay [10] was 5630; in assay [11] it was 402; in assay [12], 335; in assay [13] it was 313; in assay [14] it was 309; in assay [15], 347.

B3: Fab VH1-46_IGHD7-27*01_IGHJ2*01 & L6_IGKJ1*01 (Fab, V domains shown)
VH: QVQLVQSGAEVKKPGASVKVSCKASGYTFTSYYMHWVRQAPGQGLEWMGIINPSGGSTSYAQKFQGRVTMTRDTSTSTVYMELSSLRSEDTAVYYCARANWGYWYFDLWGRGTLVTVSS
VL: not shown
notes: Germline Fab made in E. coli; VH was cloned in Plasmid A (CH1 constant region, His6 and Flag tags) and the kappa VL in Plasmid C (kappa CL); Only the variable domains are tied to this Fab by name
B3: the ECL signal in [16] amounted to 6910; in assay [17] it was 15000.
